Measurements as given in patent US20050256302A1, “Novel peptides having camp producing activity” (Japan Science and Technology Agency, priority 2002, published 2005).
One block for each molecule: values may come before it. Bridges are numbered along the chain shown (N, C = ends). Where no end group is shown, it is not given here.

Key:
[1] = test system: LLC-PK1 cells; experiment: cAMP production in LLC-PK1 cells by bovine or canine CRSP; assay type: cell-based, pig; conditions: 10 minutes, IBMX
Description: Further, with regard to the peptides of the present invention identified in cow and dog (bovine CRSP and canine CRSP), cAMP productivity of CRSP using LLC-PK1 cells by the same manner as above was investigated.
LLC-PK1 cells were incubated in a culture medium (a Dulbecco-modified Eagle medium (DMEM) containing 10% of fetal bovine serum). After two days, the cells were washed twice with a DMEM containing 0.05% of bovine serum albumin, the medium in the incubation dish was substituted with a DMEM containing 0.5 mM of 3-isobutyl-1-methylxanthine and 0.05% of bovine serum albumin (DMEM/BSA/IBMX) and incubation was conducted at 37° C. for 30 minutes. After the incubation, the medium was substituted with a DMEM/BSA/IBMX in which CRSP was dissolved so as to make it 0 M and 10^−12 to 10^−6 M and incubation was conducted at 37° C. for 10 minutes. After the incubation, the medium in the incubating dish was removed, ethanol was added thereto and the incubating dish was once frozen in a freezer for the cell lysis. […] After that, 100 μl of 1% γ-globulin and 500 μl of 25% polyethylene glycol were added, the mixture was well mixed and centrifuged and radioactivity of the precipitate was measured using a gamma-counter and compared with radioactivity of the standard curve prepared by cAMP of known concentrations whereupon the amount of cAMP was quantified.

[2] = molecular target: T1, Pig calcitonin receptor (CTR) (Sus scrofa, UniProt P25117); experiment: cAMP production in COS-7 cells expressing pig calcitonin receptor; assay type: cell-based; conditions: CTR expressed in COS-7
T1 construct: expressed in transfected cells; host or cells: COS-7 (given as rhesus monkey renal cells), vector pcDNA 3.1
T1 sequence (P25117 30-498): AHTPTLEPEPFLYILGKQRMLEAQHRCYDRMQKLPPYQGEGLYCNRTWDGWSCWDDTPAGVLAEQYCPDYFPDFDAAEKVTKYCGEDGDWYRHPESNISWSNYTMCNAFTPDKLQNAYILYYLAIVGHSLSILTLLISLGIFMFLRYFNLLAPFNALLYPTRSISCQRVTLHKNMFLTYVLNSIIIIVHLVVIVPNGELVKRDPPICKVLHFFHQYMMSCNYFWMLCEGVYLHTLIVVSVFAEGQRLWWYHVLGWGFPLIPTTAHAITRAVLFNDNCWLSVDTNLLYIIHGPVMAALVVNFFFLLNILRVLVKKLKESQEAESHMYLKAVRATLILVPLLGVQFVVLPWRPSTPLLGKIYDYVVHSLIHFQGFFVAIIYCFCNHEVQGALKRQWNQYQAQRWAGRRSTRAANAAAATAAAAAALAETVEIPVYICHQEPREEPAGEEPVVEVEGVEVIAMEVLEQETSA
Description: Pig calcitonin receptor (CTR) was introduced into a mammalian expression vector pcDNA 3.1, expressed in rhesus monkey renal cells (COS-7) and production amount of cAMP by stimulation of CRSP was measured by radioimmunoassay. Similarly, CTR was expressed in opossum renal cells (OK cells) and production amount of cAMP by stimulation of CRSP was measured by radioimmunoassay while incorporation of sodium ion was measured by measuring the incorporation of sodium chloride having radioactivity (^22Na) by a gamma-counter.
Pig calcitonin receptor (CTR) was introduced into mammalian expression vector pcDNA 3.1 and then expressed in rhesus monkey renal cells (COS-7) whereupon production amount of cAMP by CRSP stimulation was measured by radioimmunoassay.
Pig calcitonin receptor (CTR) was introduced into a mammalian expression vector pcDNA 3.1 and expressed in rhesus monkey renal cells (COS-7) and production amount of cAMP by CRSP stimulation was measured by radioimmunoassay.
Pig calcitonin receptor (CTR) was introduced into a mammalian expression vector pcDNA 3.1, then expressed in rhesus monkey renal cells (COS-7) and production amount of cAMP by CRSP or CRSP-Gly stimulation was measured-by radioimmunoassay.

[3] = molecular target: T2, pig calcitonin receptor (CTR) (pig, UniProt P25117); experiment: cell-based or functional assay
T2 sequence: T1 sequence (P25117 30-498)

Molecule: ACNTATCMTHRLAGWLSRSGSMVRSNLLPTKMGFKIFNGP-OH (not fully specified (bridges); printed as ACNTATCMTHRLAGWLSRSGSMVRSNLLPTKMGFKIFNGP-OH; cysteine pairing not given here; listed as Bos sp.) [bovine CRSP]
cAMP productivity compared with pig CRSP [1]: nearly the same result as in the case of pig CRSP

Molecule: SCNSATCVAHWLGGLLSRAGSVANTNLLPTSMGFKVYN-OH (not fully specified (bridges); printed as SCNSATCVAHWLGGLLSRAGSVANTNLLPTSMGFKVYN-OH; cysteine pairing not given here; listed as Canis sp.) [canine CRSP]
cAMP productivity compared with pig CRSP [1]: nearly the same result as in the case of pig CRSP

The remaining lines, values ahead:

cAMP productivity, CRSP compared with CRSP-Gly [2]: nearly the same cAMP productivity
Molecule: Ser-Cys-Asn-Thr-Ala-Thr-Cys-Met-Thr-His-Arg-Leu-Val-Gly-Leu-Leu-Ser-Arg-Ser-Gly-Ser-Met-Val-Arg-Ser-Asn-Leu-Leu-Pro-Thr-Lys-Met-Gly-Phe-Lys-Val-Phe-Gly-Gly-OH (SCNTATCMTHRLVGLLSRSGSMVRSNLLPTKMGFKVFGG-OH; not fully specified (bridges); printed as Ser-Cys-Asn-Thr-Ala-Thr-Cys-Met-Thr-His-Arg-Leu-Val-Gly-Leu-Leu-Ser-Arg-Ser-Gly-Ser-Met-Val-Arg-Ser-Asn-Leu-Leu-Pro-Thr-Lys-Met-Gly-Phe-Lys-Val-Phe-Gly-Gly-OH; cysteine pairing not given here; listed as Sus sp.) [CRSP-Gly]

cAMP-producing activity relative to pig CGRP, LLC-PK1 cells [3]: ~40 fold
cAMP-producing activity relative to pig calcitonin, COS-7 cells expressing pig CTR [3]: ~350 fold
cAMP-producing activity relative to pig calcitonin, LLC-PK1 cells [3]: ~6 fold
B1: pig calcitonin receptor-stimulating peptide (CRSP) (peptide)
peptide: SCNTATCMTHRLVGLLSRSGSMVRSNLLPTKMGFKVFG-NH2
modifications: disulfide 2-7; N-terminus assumed
SMILES: CSCC[C@H](NC(=O)[C@H](CCCCN)NC(=O)[C@@H](NC(=O)[C@@H]1CCCN1C(=O)[C@H](CC(C)C)NC(=O)[C@H](CC(C)C)NC(=O)[C@H](CC(N)=O)NC(=O)[C@H](CO)NC(=O)[C@H](CCCNC(=N)N)NC(=O)[C@@H](NC(=O)[C@H](CCSC)NC(=O)[C@H](CO)NC(=O)CNC(=O)[C@H](CO)NC(=O)[C@H](CCCNC(=N)N)NC(=O)[C@H](CO)NC(=O)[C@H](CC(C)C)NC(=O)[C@H](CC(C)C)NC(=O)CNC(=O)[C@@H](NC(=O)[C@H](CC(C)C)NC(=O)[C@H](CCCNC(=N)N)NC(=O)[C@H](Cc1c[nH]cn1)NC(=O)[C@@H](NC(=O)[C@H](CCSC)NC(=O)[C@@H]1CSSC[C@H](NC(=O)[C@@H](N)CO)C(=O)N[C@@H](CC(N)=O)C(=O)N[C@@H]([C@@H](C)O)C(=O)N[C@@H](C)C(=O)N[C@@H]([C@@H](C)O)C(=O)N1)[C@@H](C)O)C(C)C)C(C)C)[C@@H](C)O)C(=O)NCC(=O)N[C@@H](Cc1ccccc1)C(=O)N[C@@H](CCCCN)C(=O)N[C@H](C(=O)N[C@@H](Cc1ccccc1)C(=O)NCC(N)=O)C(C)C
